# In patent US12129294B2, “Methods of treatment of diseases in which IL-13 activity is detrimental using anti-IL-13 antibodies” (AbbVie Inc., priority 2016, dated 2024):
# “And” between values parts separate entries of the source, which are not always exact repeats. Equal values may be shown once.
# B1: RPC4046: recombinant humanized, high-affinity, selective anti-IL-13 monoclonal antibody; heavy chain variable region SEQ ID NO: 2, light chain variable region SEQ ID NO: 3 (antibody, V domains shown)
# VH: EVTLRESGPGLVKPTQTLTLTCTLYGFSLSTSDMGVDWIRQPPGKGLEWLAHIWWDDVKRYNPALKSRLTISKDTSKNQVVLKLTSVDPVDTATYYCARTVSSGYIYYAMDYWGQGTLVTVSS
# VL: DIQMTQSPSSLSASVGDRVTISCRASQDIRNYLNWYQQKPGKAPKLLIFYTSKLHSGVPSRFSGSGSGTDYTLTISSLQPEDIATYYCQQGNTLPLTFGGGTKVEIK
# What was measured:
# [1] = system: subjects with symptomatic eosinophilic esophagitis (EoE); assay: Phase 2 study in EoE patients: safety, treatment-emergent adverse events (TEAE)
# Description: A double-blind, placebo-controlled, dose-finding study was conducted at 40 canters in North America and Switzerland. Patients with EoE (n=100, aged 18-65) were randomized to 180 mg (low dose; LD) or 360 mg (high dose; HD) RPC4046 or PBO (1:1:1) in a Day 1 intravenous loading dose, followed by weekly subcutaneous doses for 15 weeks. […] Safety was monitored throughout the study.
# Additionally, various safety and tolerability endpoints are also measurable. Safety and tolerability parameters are evaluated by the incidence, severity, and relationship of adverse events (AEs), serious AEs (SAEs), clinical laboratory abnormalities, changes in vital signs, physical examination abnormalities, and the presence of anti-drug antibodies.
# [2] = system: subjects with symptomatic eosinophilic esophagitis (EoE); assay: Phase 2 study in EoE patients: dysphagia symptom composite diary score (daily symptom diary, DSD); format: in vivo, human; design: dysphagia symptom composite diary score, Mean change / dysphagia symptom composite diary score, Mean / dysphagia symptom composite diary score, Median: scale not given here; conditions: for dysphagia symptom composite diary score, Mean change / dysphagia symptom composite diary score, LSMD versus placebo: Change to Week 16
# Excerpt: Safety was monitored throughout the study. […] The study was powered for the primary endpoint. […]
# [3] = system: subjects with symptomatic eosinophilic esophagitis (EoE); assay: Phase 2 study in EoE patients: mean esophageal eosinophil count in the 5 most inflamed HPF of esophageal biopsies; format: in vivo, human; conditions: for mean esophageal eosinophil count (EEOC Mean BL): baseline; for mean change from baseline in mean esophageal eosinophil count: baseline to week 16; for mean esophageal eosinophil count (EEOC Mean post): post treatment (week 16)
# Excerpt: (§1) Safety was monitored throughout the study. […] The study was powered for the primary endpoint.
# Additionally, various safety and tolerability endpoints are also measurable.
# To maximize consistency, biopsies were obtained from proximal and distal esophagus (i.e., 4 biopsy fragments from each level) at screening. Additional biopsies from mid-esophagus was encouraged and effort was made to obtain subsequent biopsies from the same levels. The biopsies were blinded and read by single central pathologist. To be eligible for trial, subjects were evaluated for peak eosinophil count of ≥15/HPF, from 2 of 3 (proximal, mid-, and/or distal) levels of the esophagus at the screening endoscopy.
# [4] = system: subjects with symptomatic eosinophilic esophagitis (EoE); assay: Phase 2 study in EoE patients: subject's global impression; format: in vivo, human; conditions: therapy arm; week 16
# Excerpt: as §1
# [5] = 360 mg (N = 34), safety population
# [6] = both low dose (180 mg) and high dose (360 mg)
molecule,measurement,setting,value
B1,Number of subjects experiencing ≥1 TEAE,[1]; [5],29 n
same,Number of subjects experiencing ≥1 TEAE leading to study drug d/c,[1]; [5],3 n
same,Number of subjects experiencing ≥1 TEAE with fatal outcome,[1]; [5],0 n
same,Number of subjects experiencing ≥1 moderate or severe TEAE,[1]; [5],11 n
same,"Number of subjects experiencing ≥1 possible, probable, or related TEAE",[1]; [5],18 n
same,Number of subjects experiencing ≥1 related TEAE,[1]; [5],5 n
same,Number of subjects experiencing ≥1 related serious TEAE,[1]; [5],0 n
same,Number of subjects experiencing ≥1 serious TEAE,[1]; [5],1 n
same,Number of subjects experiencing ≥1 severe TEAE,[1]; [5],2 n
same,Subjects experiencing ≥1 TEAE,[1]; [5],(85.3) %
same,Subjects experiencing ≥1 TEAE leading to study drug d/c,[1]; [5],(8.8) %
same,Subjects experiencing ≥1 moderate or severe TEAE,[1]; [5],(32.4) %
same,"Subjects experiencing ≥1 possible, probable, or related TEAE",[1]; [5],(52.9) %
same,Subjects experiencing ≥1 related TEAE,[1]; [5],(14.7) %
same,Subjects experiencing ≥1 serious TEAE,[1]; [5],(2.9) %
same,Subjects experiencing ≥1 severe TEAE,[1]; [5],(5.9) %
same,most-frequently reported adverse events,[1]; phase 2 study,"headache, URI, arthralgia, nasopharyngitis, sinusitis, abdominal pain and oropharyngeal pain"
same,infusional hypersensitivity events,[1]; treatment groups,no reported instances of infusional hypersensitivity events
same,"dysphagia symptom composite diary score, Mean","[2]; 180 mg, ITT, Baseline",27.63 and 27.6
same,"dysphagia symptom composite diary score, Median","[2]; 180 mg, ITT, Baseline",28.5
same,"dysphagia symptom composite diary score, Mean change","[2]; 180 mg, ITT",−5.3
same,"dysphagia symptom composite diary score, LSMD versus placebo","[2]; 180 mg, ITT, ANCOVA",0.02
same,"dysphagia symptom composite diary score, Mean","[2]; 180 mg, ITT, Week 16",21.9
same,"dysphagia symptom composite diary score, Median","[2]; 180 mg, ITT, Week 16",26.1
same,"dysphagia symptom composite diary score, Mean change","[2]; 180 mg, non-steroid-refractory pts",−10.0
same,"dysphagia symptom composite diary score, LSMD versus placebo","[2]; 180 mg, non-steroid-refractory",0.93
same,"dysphagia symptom composite diary score, Mean change","[2]; 180 mg, steroid-refractory pts",−1.3
same,"dysphagia symptom composite diary score, LSMD versus placebo","[2]; 180 mg, steroid-refractory",−1.3
same,"dysphagia symptom composite diary score, Mean","[2]; 360 mg, ITT, Baseline",29.03 and 29
same,"dysphagia symptom composite diary score, Median","[2]; 360 mg, ITT, Baseline",27.5
same,"dysphagia symptom composite diary score, Mean change","[2]; 360 mg, ITT",−13.3
same,"dysphagia symptom composite diary score, LSMD versus placebo","[2]; 360 mg, ITT, ANCOVA",−6.50
same,"dysphagia symptom composite diary score, Mean","[2]; 360 mg, ITT, Week 16",15.3
same,"dysphagia symptom composite diary score, Median","[2]; 360 mg, ITT, Week 16",6.2
same,"dysphagia symptom composite diary score, Mean change","[2]; 360 mg, non-steroid-refractory pts",−14.0
same,"dysphagia symptom composite diary score, LSMD versus placebo","[2]; 360 mg, non-steroid-refractory",−3.1
same,"dysphagia symptom composite diary score, Mean change","[2]; 360 mg, steroid-refractory pts",−12.3
same,"dysphagia symptom composite diary score, LSMD versus placebo","[2]; 360 mg, steroid-refractory",−12.0
same,mean dysphagia symptom composite diary score at week 16 compared to the controls,[2]; [6],reduction
same,mean dysphagia symptom composite diary score in steroid-refractory subjects,"[2]; subgroup analysis, 180 mg and 360 mg, week 16",dose-dependent reduction
same,"benefit on dysphagia composite diary score, steroid refractory versus non-steroid-refractory subgroup","[2]; subgroup analysis, over 16 weeks",steroid refractory sub-group benefited more
same,mean esophageal eosinophil count (EEOC Mean BL),[3]; 180 mg (LD),116.6 cells/hpf and 116.7 cells/hpf
same,mean change from baseline in mean esophageal eosinophil count,[3]; 180 mg (LD),−94.8 cells/hpf
same,mean esophageal eosinophil count (EEOC Mean post),[3]; 180 mg,24.8 cells/hpf
same,mean esophageal eosinophil count (EEOC Mean BL),[3]; 360 mg (HD),122.6 cells/hpf
same,mean change from baseline in mean esophageal eosinophil count,[3]; 360 mg (HD),−99.9 cells/hpf
same,mean esophageal eosinophil count (EEOC Mean post),[3]; 360 mg,25.5 cells/hpf
same,mean esophageal eosinophil count at week 16 compared to the controls,[3]; [6],statistically significant reduction
same,subjects responding as feeling a lot better or a little better compared to placebo,[4],larger number of subjects
